The target of the assay is DBD-TSSK2 (myc tagged): human TSSK2 ORF fused with the Gal4 DNA-binding domain (pGBK-TSSK2) (human). The experiment in a line: cell-based or functional assay.

As for “TSKS deletion mutant lacking the carboxyl terminus and second coiled-coil region, fused with the Gal4 activation domain (pGAD) (from UniProt P04386 768-881)”, the alpha-galactosidase activity as percentage of full length TSKS (% reduction against full length TSKS) came to 75. On to “TSKS deletion mutant lacking the first 48 amino acids, fused with the Gal4 activation domain (pGAD) (from UniProt Q9UJT2 49-592)”, for which the alpha-galactosidase activity as percentage of full length TSKS (% of full length TSKS) came to 5.

(Values after patent US20080274117A1.)
